# Results: the domain aggregation screens of Martell et al. (2025)
# Experiment: soluble fraction after stress (log2 fold change); higher = more stays soluble; pooled small domains, quantitative proteomics
# Details: stress: pH 4
# Procedure, shortened: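 Values are on a log2 scale, where higher means more of the domain stayed soluble after pH 4 stress. They are fold changes in the soluble amount of each domain from pooled custom libraries, measured by high-throughput quantitative proteomics. The fold change is taken to reflect aggregation propensity.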
row,Sequence,soluble fraction (log2)
1,HMSKMTLGENLRLLRREKGLSQEQVAQTLFVARQTISKWENGQAEPGVESLKALAKLYGVSLDRLVGA,-0.324
2,HMSKPLEVFKLTSEPFGFSFNTALGRSYTVEATGDLGVWKAVELFQGSGGEIRFTAKPTSSGGAQFFRVFV,-0.225
3,HMSKPVYILINKPKGFLASSTDKKVKKSVNDLINISNLNKIYPFDNMGRTSSGLLLLSNDLYFKKHFKDKI,0.209
4,HMSKQKRIKYFLSILNIKSIKQFRKKDLDYFYQKRFIEIQKSSKDKKLVSNQLIELNAAKEYLDEIDFEN,0.295
5,HMSKQQVRSILDDIPNIGETRRKALMRQFQSLEKIREASVGQLREVDGMNEKAAQSVYQFFHK,0.108
6,HMSKQVDVVIYILENTKAADNTYIGTYRKTADGAGVSLDTATKVMRKLQENNFIKKVQNGVYQISPLIMM,-0.519
7,HMSKRDDLLDQASEWLAKLDRDLTVVEERELKAWLGESAAHRETFIQMAKLWDKMESLSRLTDL,-1.06
8,HMSKSVEQRRQQIVAWVKEHGQSQVEDLAVRFATSEVTIRKDLAALSQQGLLIRQFGGAVPVPA,0.119
9,HMSKTQYTFKEVGSQFQLFAPSTKHTIMISADHPKYGWLTNQDQGRVINVYDTGKMTSSQDYYGLYKEVT,-0.589
10,HMSKTQYTFREVGSQFELHAPSTNHKIMVDANHPKYGWLSSQEAGRVINVYESGKMTSSQDYYGLYKQS,-0.427
11,HMSLANTSVKEMLNDLVKNEEPSKPLSDEALVKIFKEKGVKIARRTVAKYRAELNILPSHLRRT,-0.116
12,HMSLAVFLQGLLEEKQLKKADVIRRTGMEPTYGYHIFDGHKKHPARSKVLLLALAMGLTVKEAQHLLYYAG,-0.544
13,HMSLDAAAVASKLIKRLSKSPGRRFALDDLAVDVGLPHEQGRPLVRSALELLVRTQQAVEGPPNVFRLFF,-0.17
14,HMSLEDMILSLSSRIRRGESLHFRELLVAIETKSGMVTIFMAVLELLKQQVMEMRYEDDDIIFT,-0.567
15,HMSLEEIPLEERLGPGGLDPVAVYDSLPREMRDAFDSGSVSALREFVNALPAEDAARHMKAMVDSGLWVPT,-0.794
16,HMSLETRRYQLPRTDAQTASGLLRSLSGLPGVREVNLSGEGVAYLKVDSKGFDEQNVIKLLAGE,-0.0727
17,HMSLHSITIPQEFIGAVIGPGGKVIQEIQKQTGTTITITEKDNKGYVDIFGEDKGALDSALARIKEIVAIP,-0.277
18,HMSLIDYLNELMNEKNITVAQVAKNSGIGEYVYKIFNGERNAKRDTLVAISFGMHLNFEETQLLLRIA,-0.98
19,HMSLPALALRQADSLAFKQVIYHDRVVPFNTLARDFVLKLTGKPSYGGMTPEQVVGGWLLRPEVWQNEPM,0.00403
20,HMSLPAYIKISEVIARRINAGQILAGDRLPNERTMAVEFGVAVGTLRKALYHLQVRGLVTRKHGSGNYINK,0.249
21,HMSLPKIVVPTDVTVSQLAKYLEVDAISIIKQLFGMGVVASLNQRLEDEIIQLIGNEFGKEIIFSE,-0.107
22,HMSLPQSKDAVITILRTLPQLDTRAPEVYKLLGPHALDIILEDPEQVAKKINHVGVATAKLWQQALLGFK,0.198
23,HMSLQDYYQVLGVFYNAGDKEIKRRWKELINQYHPDLAQAKGASPEEIENYTLKMAEINNAYEQIMKSRKA,0.0253
24,HMSLSASELDQLRMMTKVSHMYHTRGMVQIDIARSLGLSQARVSRLLSAAEDANIVRTVVVA,-0.177
25,HMSLTAQVFTDRGKVLLSENKFTEAIDQFTKALAMDKVYIEALNRRIEAYQHLGLTELAAKDEALLGTL,-1.01

row,Sequence,soluble fraction (log2)
1,HMSLTPSQDANRSAILDAARDLFARYGFKKTTMEDIAMALRKGKSSLYYYFKNKEDIFQAVIDS,-0.0869
2,HMSMDAVSLANRLLRFFQKRPGRKFTAADLAFETGMNERTGKSLVTSALEILSRTNQIEADGDGFRLKM,0.243
3,HMSMEIQEIIRQLREKNDWSQEDMAERVGLSKNGYAKIERGETNLNLERLEQIANLFDLSVIDLIEMS,-1.03
4,HMSMEKNWVPSEDVIEILTRAGMNENFIRELIPEFIIYWSERKDVLISYDSKFIEHARLKWAQHNAE,0.0608
5,HMSMFTPAQVAQTLTVPPSTLRRWAKRFAPFLSPQSGKKRTYTVADLDTFQRIKELSAQGYTFAQIDQAL,-0.101
6,HMSMLSQERQSLILDIIKEQGSVTVTRLTEILQSSESTVRRDLSYLASKGKINKVHGGATALG,-0.306
7,HMSMNGNMIHATVIWKGRYFLVKMFFPQLTKPKRAEVQAQIEKAYPGSRVASYHITDYKPGEQFLHV,-0.156
8,HMSMPEVLSDRELEIFRMIGTGMSTGDIAKKLNISVNTIESHRKKIKDKLGIQKGSELVKAAVQWVSTQQ,-0.219
9,HMSMSVLFSELDQKDAGVIVEKLKERKIPYELQSGGSAIMVPANVLHETRLQLAAEGLPQSS,0.0876
10,HMSMTVHGALRLLQLPTIADRPYTLKEIREAYREQAQNHHPDAGGSADAMRRLNEAYQFLKERYRQA,-0.0331
11,HMSNEKVVKFAQELLVDEERSAISPALISAKIDQVLMFKPAWNEGLDRDAVVNELVRRFSIW,-1.19
12,HMSNGFFELKTSQQDELIDLIDSHTNFVRTKIEGELITAFLKLPMDAEEFNKLLFTNGIILSHLVKRK,-1.07
13,HMSNIIGNTAYSAIPDKQYFRLKSETAEKVANYLTENNIPFSGRINGDKTTLTIGQKNVDDYKAAVATVTG,0.304
14,HMSNIVNYEVYVYQNDAWDLLARYPSEKRAEAIEYAKSTEFSLNRPTKVIRETYDLDTQKFQEALIYLSE,-0.304
15,HMSNLNHSFQYKKNIGRKISLTYLGRDNESISKIYELIDSNDSGILVKNKNVEIFIHYEKIVSAKIKVS,-0.213
16,HMSNLTDLVSAKEAEVYLHFLESGSTAGMTEAELRAVRKIEELIQSNKIDYNGILRIRNETVK,-0.137
17,HMSNNLAYSQFLDRVKNKEIRKVEIRGQSIVGYTSNNETFKTYAPLNDPKMYDELLTNDVQVQVDPP,0.0357
18,HMSNQLAVPDVTNMKANAAADRLRQQGLRVELKTESSNTVPRGMAIRTDPAASTMVARGGRVTLIISSGKG,-0.0724
19,HMSNSGFVKNNGKTEFYDASGRQAKSSWINISGKWYYFDLNGTMVTGWQRISNKWYYFLEDGSK,0.342
20,HMSNSMISKDKAMSIALAKVSGATSSNIYIELEKDDGRYTYEGEINFNNKEYEFEIDAYTGNILKWEVDSI,-0.0257
21,HMSNTPHSREVLLEMDAVRRLLAVGEEKGEVDRADLQGAFEEAELGRGDLDGVLSILREYDVPLAR,-0.15
22,HMSNVIYFNYNDYKFLFMGDAGVDKETDILEKYTLSNIDFLKVGHHGSDTSSNKGFIDSIQPKYSLIS,-1.42
23,HMSNWTILIIQGSAHLIDLDSKITEIDGFGSFPTKILQDYNLNEEFEIFDTNVKMVNSVQSDLQSN,-1.97
24,HMSNYIVELSSSEKIDDIDNNNNLINSFFSKSDSQWEYKLVFKNKNEMDVFVKKISTNNKIISYKTSS,-0.106
25,HMSPAETGIYHILVENGKPNRHGLDATNKNENWLRQFLITQNTRLEDVFLLLADDGGGIRFFKSQ,-0.658

row,Sequence,soluble fraction (log2)
1,HMSPAPVSVDHLAFPTRDLEATDHFYSKVVGATLVHAESGYSPSWKSDYLLITYALPDGTRLSFFDWP,-0.133
2,HMSPDTREAILAAARTAFARDGYQTSLRGIARDAGVDPALVHHYFPDRATLFAKAVIESTAG,-0.047
3,HMSPFAHHLHELRMRHGIRQNELAELIGYDQTYISALEVGLKGPPTPEFVDKLVEGLALSRTEEAALRSAA,-0.562
4,HMSPFYALDEVDSFLDGVNVERLAALIARQAEQAQFLVVSHRRPMIGASTRTIGVTQARGAHTQVVGLP,-0.872
5,HMSPGAKIEVTGNTVNLRAGPGTNYDTRGQVKKGEQLPLLGEQGGWYRVQTSRGVAYLAGWLARVLT,-0.0378
6,HMSPLDSHLGRRIALRRQQLNTSAADLEKAISMVPGSVARFEAGRQSLNATQLFTLSRALDVPVLYFFEG,-0.418
7,HMSPREDQQSRKQHILEAAAVLFAERGYYKTTTADVARAVGVTQPYVFHFFKSKEELYLAVL,0.219
8,HMSPSDLSAEAQKVYALLDGRELSFDTLVEESGFDTGSLLAILMRLEMKMLVEHGADQVYRRSG,-0.98
9,HMSPVKAPLPGVVLDIHVSVGQEVKASDTVVTLEAMKMENAIKAGVDGKVASISVGKGDSVLEGAVLLTI,0.322
10,HMSQAVTMLKAGRLLANSKGTGAAVRDLEPGMLLYPTGQKDGTMWEVEDEMGNKGWVNSTSMQLA,0.395
11,HMSQDEKITNYIYEGNKNTQTEAFVEAEKSYRKALSLSPEKPEALYNLGNTHFLDKQYDEASQRFF,-0.111
12,HMSQDINVFIKTNPENATIIWDGESKGTNGIFKSNAGAHRLRIEMQGYESIDQDIQVSDKQFSFEYNLKKE,0.22
13,HMSQIANLLLSKNIKVNNQNIIYYETVLKYLPNNEKKEFFINAMKNNIYFTEEEIKNFGNIFN,-0.786
14,HMSQIQIKLDQAIMQLPEKQRFVFMLRYFEELPYEKIAQITETSIGGAKANFHQALKKMQEIIQ,-0.397
15,HMSQKVQEDFLGDIRKNEIAVTVFLINGVKLQGVITWFDDASILLRRDGHTQLIYKHAVSTIMPGVAVDI,-0.632
16,HMSQLYINATDDGWVIGNLPADAREVLLTTLGGQVVARYHVTAPSLRVKAPRKGVYIVSVETA,-0.0877
17,HMSQQVVTDGVNLRLRYAPSPDAETYKWADGTNRHPEKGERFPYLGDIGDFYRIDYKGLVLYVSKQHTHL,-0.34
18,HMSQRITYTEFVQMVKDDKVEKVEVGANQYNITPKSDDKTLVKMTYYTGFIKDENLLDLLNKHKVEIDGYI,0.169
19,HMSQSIGQEKALSIALADAGVQKENALGLEVKGEYDDGQLLYEVEFRAGGVEYEYEVRASDGRIVKAERD,0.0913
20,HMSQSMEVLYTDLTDKDAAAIVEKLEEEKIPYQLEDQGTTILVPPGVKYTTRLKLAAEDLPKG,0.178
21,HMSQYVPDPVLNAALVGYLDFRKQAGKPMTDYSIRLLLVDLAKLSGNPQEQAAILDQSTKNNWIGVYALG,-0.326
22,HMSRAARLALDALPDEWAQFAESRGLAGSAMAETWETFRDYWQAQPGQKGVKADWAATWRNWVRRETQNRG,-0.074
23,HMSRDYKTELQERLQVNGPVKIEYQVIAEDESKPSFKVQLLVNDKKISEGQGRNKKAAEQQAAQAAL,0.0788
24,HMSREEFLTELRKALQGRVSQQTVNDNLRYYEEYILTESHKGKTEAEVIAELGNPRLLAKSIIDAENAT,-0.0903
25,HMSRESNISTGRQLLEAQLPTWGYKKVEDIPSKQMKTALDAFNYKDVESLLQGLGEGSVALTTALRRLMP,-0.926
